B1: CpLhpH, trans-3-hydroxy-L-proline dehydratase of Colwellia psychrerythraea 34H (enzyme, UniProt Q485S0 1-355, looked up)
chain: MTKNIAQAAVKFEQWQPKIEQESYLTINSLECHTGGEPLRIITSGFPVLKGNTILAKANDCKQNYDQLRRALMFEPRGHADMYGAIITDAERDDSHFGAVFIHNEGYSSMCGHAVIALTKTAVESGVVARTGDVTQVVIDVPCGQIYAMAYSHNNVVKHVSFQCVPSFVYAKDQQVEVDGIGMVQFDIAYGGAFYAYVQASSLGLSLVPEQQEKLIAYGRKIKQAIIPQFEINHPTTAELSFLYGVIFIDDSPNQDVHSRNVCIFADGELDRSPTGSGVSGRIALHHAKQQIVLNETITIESILASSFSVRAIETVCFAGFDAVIPEVTGDAYVCGKGQWFINAEDPLKYGFLLR
B2: PaLhpD, Pyr2C/Pip2C reductase of Pseudomonas aeruginosa (enzyme, Pseudomonas aeruginosa PAO1, UniProt Q9I492 1-334, looked up)
chain: MIRMTLDEVRELAVRILRRHAFSEAHVQAVADTLVAGERDECASHGIWRLLGCIATLKAGKVSADAEPELHDIAPGLLRVDAHGGFSQCAFRLGLPHLLEKARSQGIAAMAVNRCVHFSALWVEVEALTEAGLVALATTPSHAWVAPAGGRKPIFGTNPIAFGWPRPDGPPFVFDFATSAVARGEIQLHERAGKPIPLGWGVDEQGEPTTDASAALRGAMLTFGGHKGSALAAMVELLAGPLIGDLTSAESLAYDEGSRSSPYGGELLIAIDPRRMLGASAEEHLARAETLFEGIVEQGARLPSQRRFEARERSARDGVTIPEALHRELLALLE
B3: AbLhpH, trans-3-hydroxy-L-proline dehydratase of Azospirillum brasilense (enzyme, UniProt V5YXI5 1-335, looked up)
chain: MKITRSLSTVEVHTGGEAFRIVTSGLPRAPGDTIVQRRAWLKENADEIRRALMFEPRGHADMYGGYLTEPVSPNADFGVIFVHNEGYSDHCGHGVIALSTAAVELGWVQRTVPETRVGIDAPCGFIEAFVKWDGEHAGPVRFVNVPSFIWQRDVSVETPSFGTVTGDIAYGGAFYFYVDGAPFDLPVREAAVEKLIRFGAEVKAAANAKYPVVHPEIPEINHIYGTIIANAPRHPGSTQANCCVFADREVDRSPTGSGTGGRVAQLYQRGLLAAGDTLVNESIVGTVFKGRVLRETTVGDIPAVIPEVEGSAHICGFANWIVDERDPLTYGFLVR
B4: AbLhpI, Δ1-pyrroline-2-carboxylate reductase of Azospirillum brasilense (enzyme, UniProt V5YW53 1-311, looked up)
chain: MTALSPIPVFDAADTAALLAYPALLATLGQAVADYAAGEIVSPERLVVPLQAGGVMLSMPSSARDLATHKLVNVCPGNGARGLPTILGQVTAYDASTGEMRFALDGPTVTGRRTAAVTALGIQALHGAAPRDILLIGTGKQAANHAEALAAIFPEARLHVRGTSADSAAAFCAAHRAQAPRLVPLDGDAIPDAIDVVVTLTTSRTPVYREAAREGRLVVGVGAFTADAAEIDANTVRASRLVVDDPAGARHEAGDLIVAQVDWQHVASLADVLGGTFDRSGPLLFKSVGCAAWDLAACRTARDALAARRAG
B5: C14orf149, human trans-3-hydroxy-L-proline dehydratase (enzyme, UniProt Q96EM0 1-354, looked up)
chain: MESALAVPRLPPHDPGTPVLSVVDMHTGGEPLRIVLAGCPEVSGPTLLAKRRYMRQHLDHVRRRLMFEPRGHRDMYGAVLVPSELPDAHLGVLFLHNEGYSSMCGHAVLALGRFALDFGLVPAPPAGTREARVNIHCPCGLVTAFVACEDGRSHGPVRFHSVPAFVLATDLMVDVPGHGKVMVDIAYGGAFYAFVTAEKLGLDICSAKTRDLVDAASAVTEAVKAQFKINHPDSEDLAFLYGTILTDGKDAYTKEPTTNICVFADEQVDRSPTGSGVTARIALQYHKGLLELNQMRAFKSSATGSVFTGKAVREAKCGDFKAVIVEVSGQAHYTGTASFIIEDDDPLRDGFLLK
B6: CpLhpI, Δ1-pyrroline-2-carboxylate reductase of Colwellia psychrerythraea 34H (enzyme, UniProt Q485R8 1-316, looked up)
chain: MKIISAEQVHQNLNFEELIPLLKQSFSRPFSMPQRQVYSLAPEQSENHDAFALLPSWNEEVIGNKAFTYFPDNAKKHDLPGLFSKIMLFKRQTGEPLALVDGTSVTYWRTAAISALASQLLSRKNSQHLMLFGTGNLASYLVKAHLTVRDIKQVTLWGRNAKKVSKLIADFSILYPAVTFKTSVDVNAEVASADIICCATGAKTPLFDGNSVSAGCHIDCLGNHMTDARECDTTTILRARVFVDSLTNTLNEAGELLIPMAEDAFNKDEIVGELADMCKTPSMLRQSSDEITLFKSVGTAISDLVAAHSVVEKLAD

Legend:
SEC = biological target: the molecule itself; assay: SEC
purified protein [1] = substrate: O=C(O)C1=NCCC1; assay: purified protein; conditions: NADPH
purified protein [2] = substrate: O=C(O)C1=NCCCC1; assay: purified protein; conditions: NADPH
purified protein [3] = substrate: O=C(O)C1=NC[C@@H](O)C1; assay: purified protein; conditions: NADPH
purified protein [4] = substrate: O=C(O)[C@@H]1CCCCN1; assay: purified protein; conditions: NADP+
purified protein [5] = substrate: O=C(O)[C@@H]1CCCN1; assay: purified protein; conditions: NADP+
[6] = potassium phosphate pH 7.0, 30 °C
[7] = potassium phosphate pH 6.5, 30 °C

Row | Protein | stoichiometry N (SEC) | Km (purified protein [1]; [7]) | kcat (purified protein [1]; [7]) | kcat/Km (purified protein [1]; [7]) | Km (purified protein [2]; [7]) | kcat (purified protein [2]; [7]) | kcat/Km (purified protein [2]; [7]) | Km (purified protein [3]; [7]) | kcat (purified protein [3]; [7]) | kcat/Km (purified protein [3]; [7]) | Km (purified protein [4]; glycine-NaOH pH 10.5, 30 °C) | kcat (purified protein [4]; glycine-NaOH pH 10.5, 30 °C) | kcat/Km (purified protein [4]; glycine-NaOH pH 10.5, 30 °C) | Km (purified protein [5]; glycine-NaOH pH 10.5, 30 °C) | kcat (purified protein [5]; glycine-NaOH pH 10.5, 30 °C) | kcat/Km (purified protein [5]; glycine-NaOH pH 10.5, 30 °C) | also measured
1 | B1 | 2 | – | – | – | – | – | – | – | – | – | – | – | – | – | – | – | –
2 | B2 | 2 | – | – | – | – | – | – | – | – | – | – | – | – | – | – | – | Km (purified protein [1]; [6]): 0.447 ± 0.040 mM; kcat (purified protein [1]; [6]): 41.7 ± 2 s⁻¹; kcat/Km (purified protein [1]; [6]): 93300 ± 3670 M⁻¹ s⁻¹; Km (purified protein [2]; [6]): 1.57 ± 0.3 mM; kcat (purified protein [2]; [6]): 35.3 ± 4.83 s⁻¹; kcat/Km (purified protein [2]; [6]): 22500 ± 1130 M⁻¹ s⁻¹; Km (purified protein [3]; [6]): 0.835 ± 0.109 mM; kcat (purified protein [3]; [6]): 14.5 ± 1.18 s⁻¹; kcat/Km (purified protein [3]; [6]): 17400 ± 800 M⁻¹ s⁻¹; Km (purified protein [4]; glycine-NaOH pH 10.0, 30 °C): 34.8 ± 4.0 mM; kcat (purified protein [4]; glycine-NaOH pH 10.0, 30 °C): 2.25 ± 0.233 s⁻¹; kcat/Km (purified protein [4]; glycine-NaOH pH 10.0, 30 °C): 64.7 ± 0.833 M⁻¹ s⁻¹; Km (purified protein [5]; glycine-NaOH pH 10.0, 30 °C): 18.5 ± 2.1 mM; kcat (purified protein [5]; glycine-NaOH pH 10.0, 30 °C): 3.42 ± 0.3 s⁻¹; kcat/Km (purified protein [5]; glycine-NaOH pH 10.0, 30 °C): 185 ± 5 M⁻¹ s⁻¹
3 | B3 | 2 | – | – | – | – | – | – | – | – | – | – | – | – | – | – | – | –
4 | B4 | 2 | 0.628 ± 0.045 mM | 523 ± 21.7 s⁻¹ | 835000 ± 23300 M⁻¹ s⁻¹ | 0.474 ± 0.050 mM | 166 ± 10.2 s⁻¹ | 352000 ± 16800 M⁻¹ s⁻¹ | 0.491 ± 0.063 mM | 10.3 ± 0.967 s⁻¹ | 21200 ± 750 M⁻¹ s⁻¹ | 6.54 ± 0.96 mM | 2.5 ± 0.233 s⁻¹ | 383 ± 20 M⁻¹ s⁻¹ | 3.63 ± 0.31 mM | 3.92 ± 0.117 s⁻¹ | 1080 ± 61.7 M⁻¹ s⁻¹ | –
5 | B5 | 2 | – | – | – | – | – | – | – | – | – | – | – | – | – | – | – | –
6 | B6 | 2 | 5.90 ± 0.36 mM | 124 ± 7.83 s⁻¹ | 21170 ± 33.3 M⁻¹ s⁻¹ | 7.26 ± 1.22 mM | 1.38 ± 0.228 s⁻¹ | 190 ± 3.33 M⁻¹ s⁻¹ | 8.28 ± 2.45 mM | 1.02 ± 0.287 s⁻¹ | 124 ± 2.33 M⁻¹ s⁻¹ | 80.1 ± 2.8 mM | 0.0213 ± 0.000667 s⁻¹ | 0.267 ± 0.0167 M⁻¹ s⁻¹ | 18.3 ± 2.4 mM | 1.09 ± 0.115 s⁻¹ | 59.5 ± 1.5 M⁻¹ s⁻¹ | –

Source: paper PMC3958920 (FEBS Open Bio, 2014)
